Source: paper doi:10.1101/2022.01.05.474964 (bioRxiv, 2022)

Biological target: the molecule itself
Experiment: SEC-MALS

B1: full-length human BicD2 isoform 2 (natural protein, UniProt Q8TD16-2 1-855, looked up)
chain: MSAPSEEEEYARLVMEAQPEWLRAEVKRLSHELAETTREKIQAAEYGLAVLEEKHQLKLQFEELEVDYEAIRSEMEQLKEAFGQAHTNHKKVAADGESREESLIQESASKEQYYVRKVLELQTELKQLRNVLTNTQSENERLASVAQELKEINQNVEIQRGRLRDDIKEYKFREARLLQDYSELEEENISLQKQVSVLRQNQVEFEGLKHEIKRLEEETEYLNSQLEDAIRLKEISERQLEEALETLKTEREQKNSLRKELSHYMSINDSFYTSHLHVSLDGLKFSDDAAEPNNDAEALVNGFEHGGLAKLPLDNKTSTPKKEGLAPPSPSLVSDLLSELNISEIQKLKQQLMQMEREKAGLLATLQDTQKQLEHTRGSLSEQQEKVTRLTENLSALRRLQASKERQTALDNEKDRDSHEDGDYYEVDINGPEILACKYHVAVAEAGELREQLKALRSTHEAREAQHAEEKGRYEAEGQALTEKVSLLEKASRQDRELLARLEKELKKVSDVAGETQGSLSVAQDELVTFSEELANLYHHVCMCNNETPNRVMLDYYREGQGGAGRTSPGGRTSPEARGRRSPILLPKGLLAPEAGRADGGTGDSSPSPGSSLPSPLSDPRREPMNIYNLIAIIRDQIKHLQAAVDRTTELSRQRIASQELGPAVDKDKEALMEEILKLKSLLSTKREQITTLRTVLKANKQTAEVALANLKSKYENEKAMVTETMMKLRNELKALKEDAATFSSLRAMFATRCDEYITQLDEMQRQLAAAEDEKKTLNSLLRMAIQQKLALTQRLELLELDHEQTRRGRAKAAPKTKPATPSVSHTCACASDRAEGTGLANQVFCSEKHSIYCD
stoichiometry N: 2
